Changes are numbered by the printed parent chain. “And” between values parts separate entries of the source, which are not always exact repeats. Identical values can stand only once.
B1: LG212A2 (VHH)
VHH: EVQLVESGGGLVQAGGSLRLSCAASGRTFDTYFVGWFRQAPGKERDFVAAISWSGDRTFYADSVKGRFTISRDNAKNTEYLQMNSLKPEDTAVYYCAAREYGRLYSDSEAYDYWGQGTQVTVSS
B2: LG213D6 (VHH)
VHH: EVQLVESGGGLVQPGGSLRLSCAASGFTFGDSDMSWVRQAPGEGPEWVAGINSGGGSTVYADSVKGRFTISRDNAKNMLYLQMNSLKPEDTAVYLCAQGLMAEVTAGYWGQGTQVTVSS
B3: LG214A8 (VHH)
VHH: EVQLVKSGGGSVQAGGSLRLSCAASGGTFNPYVMAWFRQAPGNEREFVARIRWSGGDAYYDDSVKGRFAITRDAAKNTVHLQMNSLKPEDTAVYYCAAATYGYGSYTYGGSYDLWGQGTQVTVSS
B4: LG214E8 (VHH)
VHH: B3 VHH with K6E
B5: LG214H10 (VHH)
VHH: B3 VHH with K6E
B6: LG214C10 (VHH)
VHH: EVQLVESGGGLVQPGGSLRLSCAASGFIFGSYDMSWVRQAPGKGPEWVSGINSGGGSTGYADSVKGRFTISRDNAKNTLYLQMNSLKPEDTAVYYCSTNLYPTTDDVWGQGTQVTVSS
B7: LG191E4 (VHH)
VHH: EVQLVESGGGLVQAGGSLRLSCAASGPTFSADTMGWFRQAPGKEREFVATIPWSGGIAYYSDSVKGRFTMSRDNAKNTVDLQMNSLKPEDTALYYCAGSSRIYIYSDSLSERSYDYWGQGTQVTVSS
B8: LG213E6 (VHH)
VHH: EVQLVESGGGLVQAGASLRLSCAASGSTLSRYGVGWFRQAPGKERELVASVDWSGSRTYYADSVKGRFTISRDNAKNTGYLQMNSLKPDDTAVYYCAADSSVVPGIEKYDDWGLGTQVTVSS
B9: LG192C4 (VHH)
VHH: EVQLVESGGGLVQAGGSLRLSCEASGRTFSSYAMVGWFRQAPGKEREFVAAVTRWSGARTVYADSVKGRFTISRDNAENTVYLQMNSLKPEDTAVYTCAADSTNRNSGAVYYSWAYDYWGQGTQVTVSS
B10: LG213B7 (VHH)
VHH: EVQLVESGGGLVQAGGSLRLSCTVSGDTFDNSAAGWYRATSETQRELVARIRSSGSTNYADSVKGRFTVSRDNAKNTVYLQMNSLKPEDTAVYYCNVVSYGEYFWGKGTLVTVSS
B11: LG213D7 (VHH)
VHH: B10 VHH
B12: LG212G2 (VHH)
VHH: EVQLVESGGGLVQPGGSLRLSCAASGFTFGSHDMSWVRQAPGKGSEWVSGIKSGGGSTLYADSVKGRFAISRDNAKNTLYLQMNSLKPEDTAVYYCATDLYGSTWYPGEDRGTQVTVSS
B13: LG212B2 (VHH)
VHH: EMQLVESGGGLVQAGDSLRLSCAASGDTFSWYVMAWFRQAPGKEREFVTWINRSGASTYYADSVKGRFTIFRDNDKNTVYLQMNSLKPEDTAVYYCAAGGFYGLRTTEERYDTWGQGTQVTVSS
B14: LG214F8 (VHH)
VHH: EVQLVESGGDLVQAGGSLRLSCVASGSTYSINAMGWYRQAPGKLRELVAAFRTGGSTDYADSVKGRFTISRDTAKNTVYLQMNSLKPEDTAVYYCNAEVIYYPYDYWGQGTQVTVSS
B15: 213-E6 5GS 213-E6 (VHH)
chain: EVQLVESGGGLVQAGASLRLSCAASGSTLSRYGVGWFRQAPGKERELVASVDWSGSRTYYADSVKGRFTISRDNAKNTGYLQMNSLKPDDTAVYYCAADSSVVPGIEKYDDWGLGTQVTVSSGGGGSEVQLVESGGGLVQAGASLRLSCAASGSTLSRYGVGWFRQAPGKERELVASVDWSGSRTYYADSVKGRFTISRDNAKNTGYLQMNSLKPDDTAVYYCAADSSVVPGIEKYDDWGLGTQVTVSS

Target: Rabies virus glycoprotein G, Challenge Virus Standard (CVS)-11 strain (Rabies virus, strain CVS-11 (genotype 1 Lyssavirus)) (UniProt O92284)
Sequence (O92284 20-524 limits assumed): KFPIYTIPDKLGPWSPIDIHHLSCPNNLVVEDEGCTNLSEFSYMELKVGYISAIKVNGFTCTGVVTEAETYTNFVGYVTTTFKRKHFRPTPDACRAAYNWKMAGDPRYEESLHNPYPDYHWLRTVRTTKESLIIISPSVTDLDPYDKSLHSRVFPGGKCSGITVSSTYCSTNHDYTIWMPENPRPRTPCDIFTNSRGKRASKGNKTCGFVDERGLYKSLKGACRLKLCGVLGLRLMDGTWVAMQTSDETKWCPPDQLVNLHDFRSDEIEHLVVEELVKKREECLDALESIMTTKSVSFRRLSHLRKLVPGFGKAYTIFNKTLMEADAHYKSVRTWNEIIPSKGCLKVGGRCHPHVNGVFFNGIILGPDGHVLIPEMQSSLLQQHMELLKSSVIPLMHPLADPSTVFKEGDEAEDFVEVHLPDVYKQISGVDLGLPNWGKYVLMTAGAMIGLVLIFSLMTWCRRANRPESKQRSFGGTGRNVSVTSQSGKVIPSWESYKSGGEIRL
Experiment: cell-based or functional assay

Row | Binder | CVS-11 neutralizing antibody titer (RFFIT), IU/mg | CVS-11 neutralizing antibody titer (RFFIT), IU/ml | CVS-11 neutralizing antibody titer (RFFIT), IU/µM | CVS-11 neutralizing antibody titer (RFFIT), nM IC50
1 | B1 | 1.72 IU/mg | 1.62 IU/ml | 0.03 IU/µM | 1340 nM
2 | B2 | < 0.48 IU/mg | < 0.5 IU/ml | < 0.01 IU/µM | > 7820 nM
3 | B3 | 7.93 IU/mg | 9.12 IU/ml | 0.12 IU/µM | 293 nM
4 | B4 | 9.37 IU/mg | 4.87 IU/ml | 0.14 IU/µM | 249 nM
5 | B5 | 8.17 IU/mg | 11.4 IU/ml | 0.12 IU/µM | 284 nM
6 | B6 | 10.6 IU/mg | 4.24 IU/ml | 0.16 IU/µM | 220 nM
7 | B7 | < 0.63 IU/mg | < 0.5 IU/ml | < 0.01 IU/µM | > 5960 nM
8 | B8 | 170 IU/mg | 112 IU/ml | 2.54 IU/µM | 13.7 nM
9 | B9 | < 0.63 IU/mg | < 0.5 IU/ml | < 0.01 IU/µM | > 5880 nM
10 | B10 | 7.38 IU/mg | 4.87 IU/ml | 0.11 IU/µM | 316 nM
11 | B11 | 7.61 IU/mg | 5.1 IU/ml | 0.11 IU/µM | 305 nM
12 | B12 | 9.31 IU/mg | 9.12 IU/ml | 0.14 IU/µM | 250 nM
13 | B13 | 3.66 IU/mg | 2.6 IU/ml | 0.05 IU/µM | 634 nM
14 | B14 | 7.19 IU/mg | 1.15 IU/ml | 0.11 IU/µM | 325 nM

Target: Rabies virus glycoprotein G, ERA strain (attenuated vaccine strain, ATCC VR332) (Rabies virus, ERA strain (genotype 1 lyssavirus)) (UniProt P03524)
Sequence (P03524 20-524 limits assumed): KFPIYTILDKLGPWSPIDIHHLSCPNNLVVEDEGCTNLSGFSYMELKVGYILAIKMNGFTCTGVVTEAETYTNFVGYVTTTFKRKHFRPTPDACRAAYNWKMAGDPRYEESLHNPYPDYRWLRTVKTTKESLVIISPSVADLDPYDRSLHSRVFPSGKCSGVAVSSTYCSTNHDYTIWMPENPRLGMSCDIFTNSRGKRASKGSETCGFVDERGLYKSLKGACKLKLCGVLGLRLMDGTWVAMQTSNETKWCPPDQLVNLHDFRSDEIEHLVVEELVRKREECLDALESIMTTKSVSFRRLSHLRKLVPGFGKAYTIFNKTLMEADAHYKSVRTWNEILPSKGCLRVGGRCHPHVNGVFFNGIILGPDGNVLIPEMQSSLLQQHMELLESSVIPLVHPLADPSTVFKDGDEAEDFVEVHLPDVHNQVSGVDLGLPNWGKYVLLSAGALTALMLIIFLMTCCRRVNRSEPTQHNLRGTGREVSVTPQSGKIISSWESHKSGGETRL
Experiment: cell-based or functional assay

Row | Binder | ERA neutralizing antibody titer (RFFIT): EU/mg | ERA neutralizing antibody titer (RFFIT): EU/ml | ERA neutralizing antibody titer (RFFIT): EU/µM | ERA neutralizing antibody titer (RFFIT): nM IC50
15 | B1 | 0.55 EU/mg | 0.52 EU/ml | 0.01 EU/µM | 3940 nM
16 | B2 | < 0.48 EU/mg | < 0.5 EU/ml | < 0.01 EU/µM | > 7820 nM
17 | B3 | < 0.43 EU/mg | < 0.5 EU/ml | < 0.01 EU/µM | > 8560 nM
18 | B4 | < 0.96 EU/mg | < 0.5 EU/ml | < 0.02 EU/µM | > 3870 nM
19 | B6 | 35.1 EU/mg | 14 EU/ml | 0.52 EU/µM | 63.7 nM
20 | B7 | < 0.63 EU/mg | < 0.5 EU/ml | < 0.01 EU/µM | > 5960 nM
21 | B8 | 155 EU/mg | 288 EU/ml | 2.31 EU/µM | 14.4 nM
22 | B9 | < 0.63 EU/mg | < 0.5 EU/ml | < 0.01 EU/µM | > 5880 nM
23 | B10 | 8.35 EU/mg | 5.51 EU/ml | 0.12 EU/µM | 268 nM
24 | B11 | 8.91 EU/mg | 5.97 EU/ml | 0.13 EU/µM | 251 nM
25 | B12 | < 0.51 EU/mg | < 0.5 EU/ml | < 0.01 EU/µM | > 7300 nM
26 | B13 | 2.59 EU/mg | 1.84 EU/ml | 0.04 EU/µM | 865 nM
27 | B14 | 23.8 EU/mg | 3.81 EU/ml | 0.36 EU/µM | 94 nM

Target: Rabies virus glycoprotein G, strain CVS-11 (ATCC VR 959) (Rabies virus, strain CVS-11 (genotype 1))
Experiment: cell-based or functional assay

Row | Binder | CVS neutralizing antibody titer: IU/mg | CVS neutralizing antibody titer: IU/ml | CVS neutralizing antibody titer: IU/µM | CVS neutralizing antibody titer: nM IC50
28 | B4 | 14.2 IU/mg and 10.1 IU/mg and 6.12 IU/mg | 7.38 IU/ml and 5.26 IU/ml and 3.18 IU/ml | 0.21 IU/µM and 0.15 IU/µM and 0.09 IU/µM | 124 nM and 196 nM and 323 nM
29 | B5 | 17.8 IU/mg | 25 IU/ml | 0.27 IU/µM | 111 nM
30 | B8 | 65.8 IU/mg and 83.8 IU/mg and 98.3 IU/mg | 98.6 IU/ml and 156 IU/ml and 183 IU/ml | 0.98 IU/µM and 1.25 IU/µM and 1.47 IU/µM | 33.6 nM and 23.7 nM and 20.2 nM

Target: Rabies virus glycoprotein G, strain CVS-11 (Challenge Virus Standard-11, ATCC VR 959) (Rabies virus, strain CVS-11)
Experiment: cell-based or functional assay

Row | Binder | CVS neutralizing antibody titre (RFFIT): IU/mg | CVS neutralizing antibody titre (RFFIT): IU/ml | CVS neutralizing antibody titre (RFFIT): IU/nM | CVS neutralizing antibody titre (RFFIT): nM IC50 | Potency (IU/nM) increase versus monovalent
31 | B15 | 1300 IU/mg | 1290 IU/ml | 36 IU/nM | 0.88 nM | 27.7 fold

— patent publication US20200123233A1
